In publication PMC5642495, “Characterization of a novel androgen receptor (AR) coregulator RIPK1 and related chemicals that suppress AR-mediated prostate cancer growth via peptide and chemical screening” (Oncotarget, 2017):
Numbering of substitutions follows the chain as printed. Ends that are not written are not given here.

Legend:
W741L-AR = target: T1, W741L-AR (Homo sapiens, UniProt P10275, W742L); test: mammalian two-hybrid (MM2H) assay, peptide interaction with W741L-AR; type: cell-based; conditions: PC-3 cells, Gal-4 = 1; for W741L-AR CDX, peptide-AR interaction in MM2H assay: CDX = 10 µM
T1 construct: expressed in transfected cells; host or cells: PC-3
T1 sequence (P10275 1-920 W742L): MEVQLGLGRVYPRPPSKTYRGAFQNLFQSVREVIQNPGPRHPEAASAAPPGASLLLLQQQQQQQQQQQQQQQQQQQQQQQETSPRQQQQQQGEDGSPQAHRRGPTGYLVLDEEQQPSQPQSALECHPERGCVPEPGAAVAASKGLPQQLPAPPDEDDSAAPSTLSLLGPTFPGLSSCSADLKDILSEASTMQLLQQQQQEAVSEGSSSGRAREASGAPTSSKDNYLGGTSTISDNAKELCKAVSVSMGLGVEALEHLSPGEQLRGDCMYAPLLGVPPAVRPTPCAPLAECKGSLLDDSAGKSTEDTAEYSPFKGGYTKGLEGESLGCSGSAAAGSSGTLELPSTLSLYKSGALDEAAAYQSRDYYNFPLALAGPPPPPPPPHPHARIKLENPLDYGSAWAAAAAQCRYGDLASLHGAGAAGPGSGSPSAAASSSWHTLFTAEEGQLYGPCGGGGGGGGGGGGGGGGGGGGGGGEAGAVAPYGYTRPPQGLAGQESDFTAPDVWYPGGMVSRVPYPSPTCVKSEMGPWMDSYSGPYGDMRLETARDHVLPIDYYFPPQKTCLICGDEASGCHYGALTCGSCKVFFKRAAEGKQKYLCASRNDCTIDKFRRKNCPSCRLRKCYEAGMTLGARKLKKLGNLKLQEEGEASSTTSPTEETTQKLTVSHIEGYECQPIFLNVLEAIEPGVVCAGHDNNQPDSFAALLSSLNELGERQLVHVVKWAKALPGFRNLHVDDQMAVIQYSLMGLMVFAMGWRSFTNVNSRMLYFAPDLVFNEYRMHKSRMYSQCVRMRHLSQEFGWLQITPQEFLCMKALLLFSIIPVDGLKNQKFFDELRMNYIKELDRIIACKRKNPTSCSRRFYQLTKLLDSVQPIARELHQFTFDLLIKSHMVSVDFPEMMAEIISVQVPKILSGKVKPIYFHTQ
Description: (§1) Using the phage display technique, we observed enrichment of FxxFY motif-containing peptides in CDX-W741L AR LBD screening. Peptide-AR interactions were further validated with the mammalian two-hybrid assay. […] The majority of these peptides additionally interacted with W741L-AR in the presence of bicalutamide. Protein database searches led to the identification of receptor-interacting protein kinase-1 (RIPK1) as a FxxFY motif-containing protein (^285FRPFY^289). RIPK1 is a kinase that plays a crucial role in inflammation and cell death. We hypothesized that RIPK1 is an AR-interacting candidate protein and the FxxFY motif is involved in mediating interactions with AR. To examine this theory, we tested the short FxxFY-containing peptide in a mammalian two-hybrid assay. […] In interacting domain mapping, the FxxFY motif of RIPK1 influenced binding to AR in the GST pull-down assay, mediating AR interactions predominantly through DBD-LBD, as depicted in Figure 1B. […] RIPK1 contains an amino-terminal kinase domain, an intermediate domain and a carboxy-terminal death domain [17]. […] We further examined tissue expression of RIPK1 in the prostate gland via immunohistochemical staining. As shown in Figure 1E and 1F, RIPK1 was enriched in benign prostate hyperplasia and non-tumor areas, but not the tumor area. In view of the collective data, we propose that RIPK1 is a bona fide AR coregulator.
(§2) The assay procedures were performed as described previously. The PC-3 cell line was used for the mammalian two-hybrid and reporter gene assays.

wt-AR = target: T2, wt-AR (Homo sapiens, UniProt P10275); test: mammalian two-hybrid (MM2H) assay, peptide interaction with wt-AR; type: cell-based; conditions: PC-3 cells, Gal-4 = 1; for wt-AR DHT, peptide-AR interaction in MM2H assay: DHT = 10 nM
T2 construct: expressed in transfected cells; host or cells: PC-3
T2 sequence (P10275 1-920): T1 sequence (P10275 1-920 W742L) with L742W
Description: as §1, §2

Row | Substance | W741L-AR CDX, peptide-AR interaction in MM2H assay (W741L-AR) | W741L-AR Ethanol, peptide-AR interaction in MM2H assay (W741L-AR) | wt-AR DHT, peptide-AR interaction in MM2H assay (wt-AR) | wt-AR Ethanol, peptide-AR interaction in MM2H assay (wt-AR)
1 | #3-18: positive control peptide NTNA-FSRLF-YPS (NTNAFSRLFYPS; also: fused to Gal4 DNA-binding domain, end not given here) [reference compound] | 128 | 9 | 590 | 10
2 | C1-FY: phage display screened peptide SYT-FNQFY-YSTA (SYTFNQFYYSTA; also: fused to Gal4 DNA-binding domain, end not given here) | 511 | 8 | 680 | 19
3 | C4-FY: phage display screened peptide SPL-FSSFY-HART (SPLFSSFYHART; also: fused to Gal4 DNA-binding domain, end not given here) | 114 | 1 | 340 | 4
4 | C8-FY: phage display screened peptide GD-FKSFY-LATTW (GDFKSFYLATTW; also: fused to Gal4 DNA-binding domain, end not given here) | 86 | 2 | 484 | 17
5 | C315-FY: phage display screened peptide APSLNR-FATFY-H (APSLNRFATFYH; also: fused to Gal4 DNA-binding domain, end not given here) | 2 | 1 | 6 | 1
6 | C411-FY: phage display screened peptide NDTPVK-FAHFY-H (NDTPVKFAHFYH; also: fused to Gal4 DNA-binding domain, end not given here) | 3 | 2 | 3 | 7
7 | C412-FY: phage display screened peptide APSDTY-FQRFY-R (APSDTYFQRFYR; also: fused to Gal4 DNA-binding domain, end not given here) | 2 | 1 | 6 | 12
8 | C414-FY: phage display screened peptide NPSSM-FEKFY-LR (NPSSMFEKFYLR; also: fused to Gal4 DNA-binding domain, end not given here) | 532 | 2 | 2,653 | 10
9 | CA9-FY: phage display screened peptide SL-FTSFY-TGSGS (SLFTSFYTGSGS; also: fused to Gal4 DNA-binding domain, end not given here) | 190 | 5 | 1,517 | 20
10 | CA-10-FY: phage display screened peptide EHSM-FHSFY-VQG (EHSMFHSFYVQG; also: fused to Gal4 DNA-binding domain, end not given here) | 14 | 4 | 277 | 12
11 | CON-1: negative control peptide MYKP-HNHHQ-TSS (MYKPHNHHQTSS; also: fused to Gal4 DNA-binding domain (not in chain)) [reference compound] | 1 | 1 | 1 | 1
12 | RIP-p: short peptide of novel AR coregulator candidate RIPK1, GIEEK-FRPFY-LSQLE (GIEEKFRPFYLSQLE; also: fused to Gal4 DNA-binding domain (not in chain)) | 554 | 12 | 159 | 2
